Measurements from PMC5673658, “Single-Molecule Fluorescence Methods to Study Plant Hormone Signal Transduction Pathways” (Frontiers in Plant Science, 2017).
Each block holds one molecule with its values, some of them ahead of it.

Tests used:
[1] = target: phosphorylated BES1 (pBES1), BES1 with a His-tag phosphorylated by BIN2 (UniProt Q9LN63); test: CoSMoS (colocalization single-molecule spectroscopy, TIRFM); His-tagged pBES1 immobilised on the slide; binding percentage of 14-3-3κ with pBES1 before and after incubation for 1 h with pBKI1C at >1,000 times the concentration of pBES1
[2] = target: 14-3-3κ as used in the CoSMoS competition experiment (UniProt P48348); test: as above
[3] = target: the molecule itself; test: single-molecule TIRF microscopy, stepwise photobleaching; His-tagged BES1 phosphorylated by BIN2 (30 min, 37°C) immobilised on the slide; 14-3-3κ/C103S-alexa555 added; bleaching steps counted in 188 trajectories; labeling efficiency 34.7%

Chain of phosphorylated BES1 (pBES1), BES1 with a His-tag phosphorylated by BIN2 (Q9LN63 whole entry): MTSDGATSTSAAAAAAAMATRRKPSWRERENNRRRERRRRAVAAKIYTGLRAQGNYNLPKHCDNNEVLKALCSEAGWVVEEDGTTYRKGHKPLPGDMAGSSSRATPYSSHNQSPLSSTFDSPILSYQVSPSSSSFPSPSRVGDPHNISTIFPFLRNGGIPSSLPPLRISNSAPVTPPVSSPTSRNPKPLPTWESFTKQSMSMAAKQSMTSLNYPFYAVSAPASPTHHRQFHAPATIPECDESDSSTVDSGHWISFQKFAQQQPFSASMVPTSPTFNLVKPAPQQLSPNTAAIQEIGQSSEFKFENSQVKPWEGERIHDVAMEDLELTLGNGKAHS

binding percentage of 14-3-3κ with pBES1 before pBKI1C [1]: 18%
Molecule: 14-3-3κ as used in the CoSMoS competition experiment (from UniProt P48348 1-248)

binding percentage of 14-3-3κ with pBES1 left after pBKI1C (>1,000 times the concentration of pBES1, 1 h) [2]: 9%
Molecule: phosphorylated BKI1 C terminal (pBKI1C), BKI1C phosphorylated by JKC (domain or fragment)

B1: alexa555-labeled 14-3-3κ/C103S (natural protein, UniProt P48348 1-248, looked up)
chain: MATTLSRDQYVYMAKLAEQAERYEEMVQFMEQLVSGATPAGELTVEERNLLSVAYKNVIGSLRAAWRIVSSIEQKEESRKNEEHVSLVKDYRSKVETELSSISSGILRLLDSHLIPSATASESKVFYLKMKGDYHRYLAEFKSGDERKTAAEDTMIAYKAAQDVAVADLAPTHPIRLGLALNFSVFYYEILNSSEKACSMAKQAFEEAIAELDTLGEESYKDSTLIMQLLRDNLTLWTSDMQEQMDEA
modifications: alexa555 (maleimide derivative) on a cysteine, site not given; labeling efficiency 34.7%
notes: 14-3-3κ (14-3-3 kappa), a plant 14-3-3 protein of the brassinosteroid signaling pathway; printed molecular weight 29073.70 D; also called 14-3-3κ/C103S-alexa555; 14-3-3κ-alexa555; source: E. coli BL21 (DE3)-plysS, purified (amylose and gel filtration columns)
stoichiometry N [3]: 2
